Measurements as given in patent US9540428B2, “Extracellular matrix heparin-binding domains” (EPFL-TTO, priority 2012, dated 2017).

T1: BMP-2 (Homo sapiens, UniProt P12643)
T1 sequence (P12643 283-396): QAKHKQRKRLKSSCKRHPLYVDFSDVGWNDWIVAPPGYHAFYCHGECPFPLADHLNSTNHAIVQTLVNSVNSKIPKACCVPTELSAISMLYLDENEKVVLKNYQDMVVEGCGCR

T2: FGF-10 (Homo sapiens, UniProt O15520)
T2 sequence (O15520 38-208): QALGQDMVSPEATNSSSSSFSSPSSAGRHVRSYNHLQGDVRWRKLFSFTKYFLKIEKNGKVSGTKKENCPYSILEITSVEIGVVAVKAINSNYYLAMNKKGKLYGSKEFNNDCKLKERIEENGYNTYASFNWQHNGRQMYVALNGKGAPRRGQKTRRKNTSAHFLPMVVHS

T3: BDNF (Homo sapiens, UniProt P23560)
T3 sequence (P23560 129-247): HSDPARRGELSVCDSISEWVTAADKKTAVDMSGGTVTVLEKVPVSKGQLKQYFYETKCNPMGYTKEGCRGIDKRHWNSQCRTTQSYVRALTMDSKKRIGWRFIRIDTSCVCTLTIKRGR

T4: VEGF-A165 (Homo sapiens, UniProt P15692)
T4 sequence (P15692 1-191 isoform P15692-4): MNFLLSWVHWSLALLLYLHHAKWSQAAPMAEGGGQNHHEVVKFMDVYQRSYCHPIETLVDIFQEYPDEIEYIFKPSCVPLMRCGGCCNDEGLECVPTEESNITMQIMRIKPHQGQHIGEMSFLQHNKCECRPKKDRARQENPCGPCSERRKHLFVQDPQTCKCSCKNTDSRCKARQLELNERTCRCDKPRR

T5: PLGF-1 (Homo sapiens, UniProt P49763)
T5 sequence (P49763 19-149 isoform P49763-2): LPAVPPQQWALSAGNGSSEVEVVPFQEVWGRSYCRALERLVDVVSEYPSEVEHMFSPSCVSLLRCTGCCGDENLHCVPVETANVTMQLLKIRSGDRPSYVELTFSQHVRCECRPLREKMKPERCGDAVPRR

T6: NT-3 (Homo sapiens, UniProt P20783)
T6 sequence (P20783 139-257): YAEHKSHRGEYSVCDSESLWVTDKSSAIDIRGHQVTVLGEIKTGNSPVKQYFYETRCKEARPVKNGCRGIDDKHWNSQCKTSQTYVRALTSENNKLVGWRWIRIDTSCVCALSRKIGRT

T7: PLGF-2 (Homo sapiens, UniProt P49763)
T7 sequence (P49763 19-170 isoform P49763-3 limits assumed): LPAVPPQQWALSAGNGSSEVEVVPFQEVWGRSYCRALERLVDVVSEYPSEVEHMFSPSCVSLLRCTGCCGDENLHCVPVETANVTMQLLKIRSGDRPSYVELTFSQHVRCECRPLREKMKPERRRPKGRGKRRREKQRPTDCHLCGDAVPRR

T8: TGF-β2 (Homo sapiens, UniProt P61812)
T8 sequence (P61812 303-414 limits assumed): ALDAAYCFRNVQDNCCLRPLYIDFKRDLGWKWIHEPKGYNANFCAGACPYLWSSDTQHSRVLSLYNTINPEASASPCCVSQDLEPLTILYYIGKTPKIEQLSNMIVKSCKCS

T9: FGF-7 (Homo sapiens, UniProt P21781)
T9 sequence (P21781 32-194): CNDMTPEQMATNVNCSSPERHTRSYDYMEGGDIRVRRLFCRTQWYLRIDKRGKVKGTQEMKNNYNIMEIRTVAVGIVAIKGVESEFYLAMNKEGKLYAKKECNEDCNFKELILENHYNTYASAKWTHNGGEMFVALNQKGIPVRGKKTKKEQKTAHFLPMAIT

T10: VEGF-B (Homo sapiens, UniProt P49765)
T10 sequence (P49765 22-207): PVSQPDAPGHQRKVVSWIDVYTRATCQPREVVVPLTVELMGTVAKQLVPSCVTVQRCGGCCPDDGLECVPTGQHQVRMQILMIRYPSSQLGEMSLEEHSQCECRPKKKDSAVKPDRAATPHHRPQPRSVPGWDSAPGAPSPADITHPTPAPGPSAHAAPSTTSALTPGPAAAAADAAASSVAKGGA

B1: TNC III1-5: recombinant tenascin C fibronectin type III repeats 1-5 (E622 to A1074) with transglutaminase substrate NQEQVSPL and 6×His tag, SEQ ID NO:1 (protein)
chain: METDTLLLWVLLLWVPGSTGDAAQPAIEGRNQEQVSPLGGSEVSPPKDLVVTEVTEETVNLAWDNEMRVTEYLVVYTPTHEGGLEMQFRVPGDQTSTIIQELEPGVEYFIRVFAILENKKSIPVSARVATYLPAPEGLKFKSIKETSVEVEWDPLDIAFETWEIIFRNMNKEDEGEITKSLRRPETSYRQTGLAPGQEYEISLHIVKNNTRGPGLKRVTTTRLDAPSQIEVKDVTDTTALITWFKPLAEIDGIELTYGIKDVPGDRTTIDLTEDENQYSIGNLKPDTEYEVSLISRRGDMSSNPAKETFTTGLDAPRNLRRVSQTDNSITLEWRNGKAAIDSYRIKYAPISGGDHAEVDVPKSQQATTKTTLTGLRPGTEYGIGVSAVKEDKESNPATINAATELDTPKDLQVSETAETSLTLLWKTPLAKFDRYRLNYSLPTGQWVGVQLPRNTTSYVLRGLEPGQEYNVLLTAEKGRHKSKPARVKASTEQAGGGSHHHHHH
modifications: Tenascin III signal sequence with polyhistidine tag
B2: Fg β15-66: heparin-binding domain of human fibrinogen β chain aa15-66 (SEQ ID NO:8); construct with TG substrate and His tag, SEQ ID NO:2 (protein)
chain: GSNQEQVSPLGHRPLDKKREEAPSLRPAPPPISGGGYRARPAKAAATQKKVERKAPDAGGCGHHHHHH
modifications: GS linker, transglutaminase substrate, the Fg beta15-66, with a Histidine tag

What was measured:
Conditions in all cases: 50 nM cytokine coated
BMP-2 = biological target: T1, BMP-2; assay: ELISA binding to coated BMP-2
Protocol: (§1) ELISA plates were coated with cytokines or BSA and further incubated with TNC III1-5 to analyze binding of TNC III1-5 to a wide variety of cytokines. […] Results are depicted in FIG. 3. Method: 50 nM of cytokine was coated for (1 hr, 37° C.). After blocking with 2% BSA (1 hr, RT). 100 nM TNC III1-5 was applied in PBST (0.05% tween, 0.1% bovine serum albumin (BSA)) (1 hr, RT). TNC III1-5 was detected with horseradish peroxidase (HRP)-anti-HIS in PBST (1 hr, RT) and developed with 3,3′,5,5′-tetramethylbenzidine (TMB), a soluble colorimetric HRP […]. Addition of sulfuric acid stop solution changes the color to yellow, enabling accurate measurement of the intensity at 450 nm using a spectrophotometer or plate reader. […] Heparin (4 μM) was added to TNC III1-5 to test the effect of blocking the heparin binding site of TNC III1-5, which has been defined as domain TNC III5 (Weber, Zimmermann, et al., 1995).
(§2) ELISA plates were coated with cytokines or BSA and further incubated with Fg β15-66 to analyze binding of […] to a wide variety of cytokines. […] Results are depicted in FIG. 4. Method: The methods were analogous to those used in Example 3.

FGF-10 = biological target: T2, FGF-10; assay: ELISA binding to coated FGF-10
Protocol: as §1, §2

BDNF = biological target: T3, BDNF; assay: ELISA binding to coated BDNF
Protocol: as §1, §2

VEGF-A165 = biological target: T4, VEGF-A165; assay: ELISA binding to coated VEGF-A165
Protocol: as §1, §2

PLGF-1 = biological target: T5, PLGF-1; assay: ELISA binding to coated PLGF-1
Protocol: as §1, §2

NT-3 = biological target: T6, NT-3; assay: ELISA binding to coated NT-3
Protocol: as §1, §2

PDGF-AB = PDGF-AB (Homo sapiens, UniProt P01127+P04085); assay: ELISA binding to coated PDGF-AB
Protocol: as §1, §2

PDGF-BB = PDGF-BB (Homo sapiens, UniProt P01127); assay: ELISA binding to coated PDGF-BB
Protocol: as §1, §2

PLGF-2 = biological target: T7, PLGF-2; assay: ELISA binding to coated PLGF-2
Protocol: as §1, §2

TGF-β2 = biological target: T8, TGF-β2; assay: ELISA binding to coated TGF-β2
Protocol: as §1, §2

IGF-BP3 = IGF-BP3 (Homo sapiens, UniProt P17936); assay: ELISA binding to coated IGF-BP3
Protocol: as §1, §2

IGF-BP5 = IGF-BP5 (Homo sapiens, UniProt P24593); assay: ELISA binding to coated IGF-BP5
Protocol: as §1, §2

FGF-2 = FGF-2 (Homo sapiens, UniProt P09038); assay: ELISA binding to coated FGF-2
Protocol: as §1, §2

FGF-7 = biological target: T9, FGF-7; assay: ELISA binding to coated FGF-7
Protocol: as §1, §2

TGF-β1 = TGF-β1 (Homo sapiens, UniProt P01137); assay: ELISA binding to coated TGF-β1
Protocol: as §1, §2

VEGF-B = biological target: T10, VEGF-B; assay: ELISA binding to coated VEGF-B
Protocol: as §1, §2

Chain of PDGF-AB (P01127 82-190 limits assumed, other chains not shown): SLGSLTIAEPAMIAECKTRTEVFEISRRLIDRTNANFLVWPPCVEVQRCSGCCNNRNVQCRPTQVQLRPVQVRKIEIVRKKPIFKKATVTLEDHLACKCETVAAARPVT
Chain of PDGF-BB (P01127 82-190 limits assumed): as the sequence (P01127 82-190 limits assumed, other chains not shown) above
Chain of IGF-BP5 (P24593 21-272, species assumed): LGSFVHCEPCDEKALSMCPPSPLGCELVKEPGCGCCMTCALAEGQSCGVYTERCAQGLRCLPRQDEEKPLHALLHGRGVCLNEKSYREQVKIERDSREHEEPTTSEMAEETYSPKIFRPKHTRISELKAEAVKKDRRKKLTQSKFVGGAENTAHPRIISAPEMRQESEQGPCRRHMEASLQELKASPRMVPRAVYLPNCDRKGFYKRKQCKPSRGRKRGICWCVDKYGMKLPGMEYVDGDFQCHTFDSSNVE
Chain of FGF-2 (P09038 143-288, species assumed): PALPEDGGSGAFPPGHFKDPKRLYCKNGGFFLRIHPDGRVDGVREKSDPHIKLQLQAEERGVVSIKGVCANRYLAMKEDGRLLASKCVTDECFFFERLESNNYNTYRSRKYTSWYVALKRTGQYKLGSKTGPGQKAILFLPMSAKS
Chain of TGF-β1 (P01137 279-390 limits assumed, species assumed): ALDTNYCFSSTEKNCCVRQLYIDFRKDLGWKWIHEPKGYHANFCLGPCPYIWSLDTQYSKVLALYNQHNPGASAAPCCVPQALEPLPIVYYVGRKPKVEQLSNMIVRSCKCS
Chain of IGF-BP3 (P17936 28-291, species assumed): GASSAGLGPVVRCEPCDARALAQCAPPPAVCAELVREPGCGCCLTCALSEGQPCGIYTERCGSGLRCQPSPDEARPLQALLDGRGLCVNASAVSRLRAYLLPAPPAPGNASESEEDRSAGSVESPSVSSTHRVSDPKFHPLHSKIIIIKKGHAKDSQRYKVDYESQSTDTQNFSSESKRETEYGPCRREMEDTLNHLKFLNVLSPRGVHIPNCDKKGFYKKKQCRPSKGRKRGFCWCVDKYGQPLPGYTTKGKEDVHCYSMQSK

| Molecule | binding to BMP-2 (ELISA, signal above BSA background) (BMP-2) | binding to FGF-10 (ELISA, signal above BSA background) (FGF-10) | binding to BDNF (ELISA, signal above BSA background) (BDNF) | binding to VEGF-A165 (ELISA, signal above BSA background) (VEGF-A165) | binding to PLGF-1 (ELISA, signal above BSA background) (PLGF-1) | binding to NT-3 (ELISA, signal above BSA background) (NT-3) | binding to PDGF-AB (ELISA, signal above BSA background) (PDGF-AB) | binding to PDGF-BB (ELISA, signal above BSA background) (PDGF-BB) | binding to PLGF-2 (ELISA, signal above BSA background) (PLGF-2) | binding to TGF-β2 (ELISA, signal above BSA background) (TGF-β2) | binding to IGF-BP3 (ELISA, signal above BSA background) (IGF-BP3) | binding to IGF-BP5 (ELISA, signal above BSA background) (IGF-BP5) | binding to FGF-2 (ELISA, signal above BSA background) (FGF-2) | binding to FGF-7 (ELISA, signal above BSA background) (FGF-7) | binding to TGF-β1 (ELISA, signal above BSA background) (TGF-β1) | binding to VEGF-B (ELISA, signal above BSA background) (VEGF-B) |
| --- | --- | --- | --- | --- | --- | --- | --- | --- | --- | --- | --- | --- | --- | --- | --- | --- |
| B1 | positive binding | positive binding | positive binding | positive binding | positive binding | positive binding | positive binding | positive binding | positive binding | positive binding | positive binding | positive binding | positive binding | positive binding | positive binding | positive binding |
| B2 | positive binding | positive binding | positive binding | positive binding | did not bind | positive binding | positive binding | positive binding | positive binding | positive binding | positive binding | positive binding | positive binding | positive binding | positive binding | positive binding |
